Data taken from doi:10.1101/2025.06.18.660434.

Target: GST-fusion RACK1 (UniProt P63244)
Experiment: pull-down

Kd: 32 nM
Substance: His-tagged PKAcα (from UniProt P17612 1-351) (enzyme)
